Assay results: patent US20210322404A1, “FGFR REGULATION FOR THE TREATMENT OF VIRAL INFECTIONS” (ETH ZURICH, priority 2016, published 2021)

Assays:
HSV-1 = HSV-1 infection of HaCaT cells, virus load; format: cell-based, Herpes Simplex Virus type 1
Protocol: FIGS. 5A-C relate to HaCaT cells infected with HSV-1 (MOI=0.5) after overnight serum starvation, either alone or in combination with FGF7 (10 ng/ml) or IFNα (1000U/ml). 24 h after infection, virus load was determined by qPCR for the HSV-1 Glycoprotein B (Glyc-B) gene relative to the human β-actin gene (A) or visualized by immunofluorescence staining for HSV-1 Glycoprotein D (Glyc-D) (red) (B). The Glyc-B/β-actin gene ratio in HSV-1 infected cells was set to 1. Cell nuclei were stained with DAPI (blue). Magnification bar: 200 μm. (C) Transmission microscopy images of HaCaT cells taken 48 h after HSV-1 infection. […] Magnification bar: 80 μm. Representative data out of four experiments are shown.
FIGS. 5 D & E relate to overnight-starved HaCaT cells infected with HSV-1 (MOI=0.5) alone or in combination with IFNα (1000 U/ml), IFNα and FGF7 (10 ng/ml) (D); or FGF7 at different concentrations (E).
FIG. 5F pertains to serum-starved HaCaT cells that were infected with HSV-1 (MOI 0.5-1). After 4 h, infected cells were washed with PBS, followed by addition of fresh serum-free culture medium containing FGF7 (10 ng/ml).
FIGS. 5G-K pertains to overnight-starved HaCaT cells infected with HSV-1 (MOI=0.5) alone or in combination with FGF7, which was added at the indicated time points. 12 h after infection, cells were analyzed for Glyc-B DNA (H) and, RSAD2 and IRF7 mRNA levels by qPCR/qRT-PCR (I) or for ISG protein levels by western blotting (K). Vinculin was used as loading control.
FIGS. 7A-C relate to serum-starved HaCaT cells that were infected with HSV-1 in the presence or absence of FGF7 (10 ng/ml), NSC23766 (20 μM), the FGFR kinase inhibitors AZD4547 (1 μM) and BGJ398 (3.5 μM) (A) or IFNα (1000 U/ml) (B). […] Magnification bar: 500 μm. The Glyc-D positive area was quantified using digital pixel measurements (C, right). A representative out of two experiments is shown.
Frozen sections from mouse back skin were fixed with cold methanol, and unspecific binding sites were blocked with PBS/2% bovine serum albumin (BSA) (Sigma)/1% fish skin gelatin (Sigma)/0.05% Triton X-100 (Carl Roth GmbH, Karlsruhe, Germany) for 2 h at room temperature. Samples were then incubated overnight at 4° C. with anti-IRF7 or anti-K14 antibodies diluted in the same buffer. After three washes with 1×PBS/0.1% Tween 20 (Carl Roth GmbH), slides were incubated at room temperature (RT) for 4 h with secondary antibodies (AF555-conjugated anti-rabbit IgG and AF488-conjugated anti-mouse IgG) and DAPI (4′,6-diamidino-2-phenylindole dihydrochloride) (Sigma) as counter-stain, washed again and mounted with Mowiol (Hoechst, Frankfurt, Germany). Stained sections were photographed with a Leica SP1-2 confocal microscope equipped with a 63×0.6-1.32 NA (Iris) PL Apo Oil objective. For data acquisition the Leica Confocal Software (Leica, Wetzlar, Germany) was used. For immunofluorescence staining of cultured cells, they were washed with PBS and either fixed for 5 min with cold methanol for staining with antibodies against ZO-1 and IRF7, or with 4% paraformaldehyde (PFA) (Sigma) for 20 min at RT for Glyc-D staining. PFA-fixed cells were then incubated for 10 min with 0.5% Triton X-100 in PBS. After 1 h blocking in PBS containing 2% BSA, cells were stained with the primary antibodies for 1 h in the same blocking buffer. After three washes with PBS, cells were incubated with the secondary antibodies (AF555-conjugated anti-mouse IgG, AF488-conjugated anti-mouse IgG and AF555-conjugated anti-rabbit IgG) and DAPI.

ZIKV = ZIKV infection of HaCaT cells; format: cell-based, Zika Virus
Protocol: FIGS. 6B and C relate to HaCaT cells that were serum starved overnight and then infected with the ZIKV strains Uganda (strain 976) (MOI=0.1) or French-Polynesia (PF13/251013-18) (MOI˜20). 2h after infection cells were treated with 20 ng/ml FGF7 or left untreated (CTRL). Culture medium+/−FGF7 was changed every day. 48h post infection cells were analyzed by immunofluorescence using a Flavivirus group-specific antibody (4G2) detecting the ZIKV envelope protein (ZIKV-Env) (B). Magnification bar in (B): 40 μm. Alternatively, cells were analyzed for ZIKV mRNA levels by qRT-PCR relative to RPL27 (C). Mean expression levels in vehicle-treated cells were set to 1. Representative out of four independent experiments are shown.
HaCaT cells were seeded on a 4-well tissue chamber on a PCA slide (5×10^4/chamber). After overnight serum starvation, they were infected with the ZIKV strains Uganda (strain 976) (MOI=0.1) or French-Polynesia (PF13/251013-18) (MOI˜20). 2h post infection cells were treated with FGF7 or left untreated. Culture media+/−FGF7 was changed every day. 48 hours post-infection cells were either analyzed by immunofluorescence using a Flavivirus group-specific antibody (4G2) detecting the ZIKV envelope protein (ZIKV-Env) or harvested and analyzed for ZIKV expression levels by qRT-PCR relative to human RPL27 (ZIKV primers: 5′-[…] -3′, SEQ ID NO: 49; 5′-[…] -3′, SEQ ID NO: 50). To investigate the effect of ZIKV and FGF7 on ISG expression, HaCaT cells were seeded in 6-well plates. After overnight serum starvation, confluent cells were infected with the ZIKV strain French-Polynesia (PF13/251013-18) (MOI˜20) in the presence or absence of FGF7 (20 ng/ml). 72 h post-infection cells were harvested and analyzed for OAS1 and MxA by qRT-PCR relative to RPL27.

B1: FGF7: recombinant human FGF7, the classical ligand of FGFR2b (protein, UniProt P21781 32-194, looked up)
Fibroblast growth factor 7: CNDMTPEQMATNVNCSSPERHTRSYDYMEGGDIRVRRLFCRTQWYLRIDKRGKVKGTQEMKNNYNIMEIRTVAVGIVAIKGVESEFYLAMNKEGKLYAKKECNEDCNFKELILENHYNTYASAKWTHNGGEMFVALNQKGIPVRGKKTKKEQKTAHFLPMAIT
For B1, the “viral DNA, FGF7 given after removal of the virus” value (HSV-1; HaCaT infected 4 h, virus removed, FGF7 10 ng/ml for 8 h) was “A strong increase in viral DNA”, the “appearance of HSV-1 infected cells (transmission microscopy)” value (HSV-1; HaCaT, 48 h after infection) was “completely detached” and the “IFNα-mediated reduction in viral DNA” value (HSV-1; HaCaT, HSV-1, IFNα 1000 U/ml and FGF7 10 ng/ml) was “partially reverted”. The “levels of viral DNA at different FGF7 concentrations” value (HSV-1; HaCaT, HSV-1 MOI=0.5) was “induced the levels of viral DNA in a dose-dependent manner”, the “HSV-1 glycoprotein D (Glyc-D) immunofluorescence staining” value (HSV-1; HaCaT, HSV-1 MOI=0.5, FGF7 10 ng/ml) was “increased strongly” and the “viral glycoprotein B (Glyc-B) DNA” value (HSV-1; HaCaT, HSV-1 MOI=0.5, FGF7 10 ng/ml or IFNα 1000 U/ml) was “A strong increase in viral DNA”. The “HSV-1 replication, FGF7 present only for 4h” value (HSV-1; HaCaT, analysis 12 h after infection) was “no longer promoted”, the “HSV-1 replication, FGF7 added with the virus or 2h or 4h post infection” value (HSV-1; HaCaT, exposed to FGF7 for 12h, 10h or 8h) was “strongly promoted HSV-1 replication” and the “ZIKV gene expression (qRT-PCR relative to RPL27)” value (ZIKV; FGF7 20 ng/ml added 2 h after infection) was “efficient when added 2 h after the infection”. The “number of cells expressing the ZIKV envelope protein” value (ZIKV; FGF7 20 ng/ml, 48 h post infection) was “increased the number of cells expressing the ZIKV envelope protein” and the “increase of MxA and OAS1 expression during ZIKV infection” value (ZIKV; ZIKV French-Polynesia, FGF7 20 ng/ml, 72 h) was “strongly suppressed”.
